Like-named read-outs stand apart in the source and are kept apart here.
B1: AdhBZm: Enzyme candidate for BDO biosynthetic pathway step A6, SEQ ID NO. 50 (protein, listed as Zymomonas mobilis)
chain: MASSTFYIPFVNEMGEGSLEKAIKDLNGSGFKNALIVSDAFMNKSGVVKQVADLLKAQGINSAVYDGVMPNPTVTAVLEGLKILKDNNSDFVISLGGGSPHDCAKAIALVATNGGEVKDYEGIDKSKKPALPLMSINTTAGTASEMTRFCIITDEVRHVKMAIVDRHVTPMVSVNDPLLMVGMPKGLTAATGMDALTHAFEAYSSTAATPITDACALKAASMIAKNLKTACDNGKDMPAREAMAYAQFLAGMAFNNASLGYVHAMAHQLGGYYNLPHGVCNAVLLPHVLAYNASVVAGRLKDVGVAMGLDIANLGDKEGAEATIQAVRDLAASIGIPANLTELGAKKEDVPLLADHALKDACALTNPRQGDQKEVEELFLSAF
B2: NosEAv: Enzyme candidate for BDO biosynthetic pathway step A3, SEQ ID NO. 20 (protein, listed as Anabaena variabilis)
chain: MPKAAVMSAPNQPVVVQQLPDPILEKGGIIVETLYSEVCGTDVHLLHGRLEGVPYPIIPGHFSVGRVVETGGAVSDVNSNLIQPGAIATFLDVHETCYNCWYCLVAKASTRCPQRKVYGVTYSAKEGLLGGWSELIYLKPGVKVLTLPAEVSPKQFIAGGCALPTALHAIDRAQIQIGDVVVVQGCGPVGLSVAILALLSGAGKVIVIDKFESRLAVAKSFGVDETLAIKADDPRQHIERVLELTNGHGADVIIEATGIPIAVKEGLNMTRNGGRYVIVGHYTNTGEILINPHLEINLKHIDIRGTWGIDFSHFYRMIELLKRHSDPKKNIAWENLISRSYTLNEINQALTDVERGSVLKAVIQPNLS
B3: DhaTCf: Enzyme candidate for BDO biosynthetic pathway step A6, SEQ ID NO. 48 (protein, listed as Citrobacter freundii)
chain: MSYRMFDYLVPNVNFFGPNAISVVGERCKLLGGKKALLVTDKGLRAIKDGAVDKTLTHLREAGIDVVVFDGVEPNPKDTNVRDGLEVFRKEHCDIIVTVGGGSPHDCGKGIGIAATHEGDLYSYAGIETLTNPLPPIVAVNTTAGTASEVTRHCVLTNTKTKVKFVIVSWRNLPSVSINDPLLMLGKPAPLTAATGMDALTHAVEAYISKDANPVTDAAAIQAIRLIARNLRQAVALGSNLKARENMAYASLLAGMAFNNANLGYVHAMAHQLGGLYDMPHGVANAVLLPHVARYNLIANPEKFADIAEFMGENTDGLSTMDAAELAIHAIARLSADIGIPQHLRDLGVKEADFPYMAEMALKDGNAFSNPRKGNEKEIAEIFRQAF
B4: NosEN: Enzyme candidate for BDO biosynthetic pathway step A3, SEQ ID NO. 16 (protein, listed as Nostoc sp.)
chain: MPLAAVMTAPNQPVEVQQLPDPILEKGGIILETLYSEVCGTDVHLLHGRLEGVPYPIIPGHFSVGRVVETGGAVSDVNGKLIQPGAIATFLDVHETCYNCWYCLVAKASTRCPQRKVYGVTYSAKDGLLGGWSELIYLKPGVKVLTLPEEVSPKQFIAGGCALPTALHAIDRAQIQIGDVVVVQGCGPVGLSAAILALLSGAGKVIVIDKFESRLVVAKSFGVDETLAIKADDPRQHIERVLELTNGHGADVTIEATGIPIAVKEGLNMTRNGGRYVIVGHYTNTGEILINPHLEINLKHIDIRGTWGIDFSHFYRMIELLKRHSDSSKNIAWSSIISRSYTLKEINQALADVEQGSVLKAVIQPNLS
B5: NosENp: nosE alcohol dehydrogenase from Nostoc punctiforme, step A3 enzyme candidate, SEQ ID NO. 18 (protein)
chain: MPLAAVMTAPNQPVEVQQLPEPILEKGGIIIETLYSEVCGTDVHLLHGRLEGVPYPIIPGHFSVGRVVETGGAVSDVNGKLIQPGAIATFLDVHETCYNCWYCLVAKASTRCPKRKVYGVTYSAKDGLLGGWSELIYLKPGVKVLTLPEEVSPKQFIAGGCALPTALHAIDRAQIQIGDVVVVQGCGPVGLSAAILALLSGAGKVIVIDKFESRLVVAKSFGVDETLAIRADDPRQHIERVLELTNGHGADVTIEATGIPIAVKEGLNMTRNGGRYVIVGHYTNTGEILINPHLEINLKHIDIRGTWGIDFSHFYRMIELLKRHSDSSKNIAWSSIISRSYTLKEINQALVDVEQGSVLKAVIQPNLS
modifications: Nostoc punctiforme

Key:
[1] = system: Corynebacterium glutamicum (ATCC 13032); conditions: FIG. 12A
Experimental: (§4) For each experiment, 50 mL of media was filter-sterilized before adding to pre-sterilized 250 mL triple baffled shake flasks. […] Each strain was grown in four different shake flasks.
(§5) Inocula were freshly grown on agar plates, cotton swabbed into a sterile Falcon® tube containing the same medium used in the shake flask and mixed well. The cell suspension was then inoculated into the prepared shake flasks to initiate the growth evaluation. The growth for each strain was monitored by measuring the OD (at 660 nm) and pH over the time course. If the medium contained glucose, such as Difco® Yeast Malt medium (YM), glucose concentration was monitored by using a YSI 2700 Select Biochemistry Analyzer.
(§6) Since different media and growth conditions were used, results were expressed as % of growth where the control, no BDO flask, represented 100% growth.

[2] = system: Zymomonas mobilis (ATCC 31821); conditions: 90 g/L and 135 g/L of BDO
Experimental: as §4, §5, §6

[3] = system: Pseudomonas putida (ATCC 700801)
Experimental: as §4, §5, §6

[4] = system: S. cerevisiae strains (CEN.PK and Fermentis); conditions: 135 g/L of BDO
Experimental: as §4, §5, §6

[5] = system: Yarrowia lipolytica (ATCC 20228)
[6] = system: Zygosaccharomyces bailii (ATCC 60594)
[7] = system: 4-hydroxybutanal; experiment: Enzyme assay, oxidoreductase (step A6), cell lysates; type: biochemical; set-up: key: +: measureable activity detected in the assay; −: no measurable activity detected in the assay; conditions: BDO biosynthetic pathway step A6
Experimental: (§1) Enzyme expression and crude lysate preparation. The enzymatic activity of each candidate enzyme is evaluated, first in E. coli and subsequently in C. glutamicum. It will be apparent to one of skill in the art that the expression and lysate preparations may need to be modified depending on the host cell and recombinant gene of interest.
E. coli: E. coli strains transformed with expression clones, for example, pUC18 or MB4124 based clones having a medium strong constitutive promoter regulating the recombinant gene of interest, are grown aerobically in LB medium (Difco) containing the appropriate antibiotic(s). At an OD600 of 0.5, IPTG is added to a final concentration of 0.25 mM. The cultures are grown to a final OD600 of 1.5 at which time the cells are collected and harvested by centrifugation. Cell pellets are resuspended in BugBuster (Novagen) reagent containing benzonase and lysozyme. Alternatively, E. coli strains transformed with expression clones, are grown overnight aerobically at 37° C. in BHI containing the appropriate antibiotic(s). 300 μL of fresh overnight culture is used to inoculate 2.7 mL BHI containing 0.25 mM IPTG and the appropriate antibiotic. The cultures are grown aerobically for 4-5 hours at 37° C. at which time the cells are collected and harvested by centrifugation. Cell pellets are frozen at −80° C. for at least 15 minutes, then thawed and resuspended in BugBuster (Novagen) reagent. Lysis and lysate collection are performed according to the manufacturer's instructions and, for example, may involve use of a sonicator and/or French press. Cleared lysates are stored on ice until enzyme assays are performed. […]
(§2) Protein Assays. Protein concentrations in lysates are determined according to the methods of Bradford et al. (Anal. Biochem. 72:248-254 [1976]) or by the method of Smith et al. (Anal. Biochem. 150(1):76-85 [1985]) and lysates are assayed according to the methods below. […]

[8] = system: L-glutamate 5-semialdehyde (GSA); experiment: Enzyme assay, oxidoreductase (step A3), cell lysates; type: biochemical; set-up: key: +: measureable activity detected in the assay; −: no measurable activity detected in the assay; conditions: BDO biosynthetic pathway step A3
Experimental: as §1
E. coli: E. coli strains transformed with expression clones, for example, pUC18 or MB4124 based clones having a medium strong constitutive promoter regulating the recombinant gene of interest, are grown aerobically in LB medium (Difco) containing the appropriate antibiotic(s). At an OD600 of 0.5, IPTG is added to a final concentration of 0.25 mM. The cultures are grown to a final OD600 of 1.5 at which time the cells are collected and harvested by centrifugation. Cell pellets are resuspended in BugBuster (Novagen) reagent containing benzonase and lysozyme. Alternatively, E. coli strains transformed with expression clones, are grown overnight aerobically at 37° C. in BHI containing the appropriate antibiotic(s). 300 μL of fresh overnight culture is used to inoculate 2.7 mL BHI containing 0.25 mM IPTG and the appropriate antibiotic. The cultures are grown aerobically for 4-5 hours at 37° C. at which time the cells are collected and harvested by centrifugation. Cell pellets are frozen at −80° C. for at least 15 minutes, then thawed and resuspended in BugBuster (Novagen) reagent. Lysis and lysate collection are performed according to the manufacturer's instructions and, for example, may involve use of a sonicator and/or French press. Cleared lysates are stored on ice until enzyme assays are performed.
C. glutamicum: C. glutamicum strains transformed with MB4124 expression clones containing the recombinant gene of interest are grown aerobically in BHI broth supplemented with the proper antibiotic(s). At an OD600 of 0.5, IPTG is added to a final concentration of 0.25 mM. The cultures are grown to a final OD600 of 1.5 at which time the cells are collected and harvested by centrifugation. The pellet is washed once in one volume of water and resuspended in lysis buffer (1.0 ml 1.0 M HEPES buffer, pH 7.5, 0.5 ml 1M KOH, 10 μl 0.5M EDTA, protease inhibitor cocktail, water to 5 ml; the final pH will vary depending on the individual enzyme being tested) and one volume of 0.1 mm acid washed glass beads. The mixture is repeatedly alternately vortexed and held on ice for 15 seconds, eight times. After centrifugation for 5 min at 4,000 rpm, the supernatant lysate is removed and respun for 20 min at 10,000 rpm. Alternatively, C. glutamicum strains transformed with MB4124 expression clones containing the recombinant gene of interest are grown aerobically overnight in BHI broth supplemented with the proper antibiotic(s). Five mL of fresh overnight culture is used to inoculate 200 mL BHI containing 0.25 mM IPTG and the appropriate antibiotic. The cultures are grown aerobically at 30° C. for 5-7 hours at which time the cells are collected and harvested by centrifugation at 4° C. The pellet is resuspended in 15 mL ice cold 39 mM KH2PO4, 61 mM K2HPO4, 0.5 M KCl and lysed using a BioSpec BeadBeater and following the manufacturer's instructions. […]
as §2

[9] = system: L-glutamate 5-semialdehyde (GSA); experiment: In vitro substrate conversion assay, step A3; type: biochemical; set-up: key: +: measureable activity detected in the assay; −: no measurable activity detected in the assay; conditions: BDO biosynthetic pathway step A3
Experimental: In Vitro Substrate Conversion. Most of the enzyme assays described above are based on recording changes in absorbance at a given wavelength. In addition to such spectrophotometric readouts, these assays can also be analyzed by more direct methods using an endpoint assay where the reaction is terminated after a given period of time and the mixture is analyzed via HPLC or LC-MS methods.
(§3) The aldehyde dehydrogenase linked reaction was used for step A5.

[10] = system: L-glutamate 5-semialdehyde (GSA); experiment: Bioconversion (feeding) assay, step A3; type: cell-based; set-up: key: +: measureable activity detected in the assay; −: no measurable activity detected in the assay; conditions: BDO biosynthetic pathway step A3
Experimental: Bioconversion assays. The activity of a candidate enzyme towards a given substrate can also be evaluated in vivo using a simple feeding assay. A strain expressing the candidate enzyme is grown in the presence of the substrate for which activity is desired. Samples of the culture are removed periodically and the cells are removed via centrifugation. The culture supernatant is then analyzed (e.g., by LC-MS) to determine how much of the substrate has been removed and how much of a given product is present.
as §3

[11] = 90 g/L and 135 g/L of BDO, loss of cell viability

Molecule | Enzyme Assay [7] | Enzyme Assay [8] | In Vitro Substrate Conversion Assay [9] | Bioconversion Assay [10] | further results
OCCCCO [BDO, 1,4-butanediol] |  |  |  |  | growth in the presence of BDO ([1]; 90 g/L and 135 g/L of BDO): grew better than the rest of strains; growth in the presence of BDO ([1]; 135 g/L BDO, compared with Z. mobilis): grew better than Z. mobilis; growth in the presence of BDO [2]: grew better than the rest of strains; cell density in the presence of BDO ([3]; 20 g/L of BDO, relative to no-BDO control): approximately twice of the control; growth in the presence of BDO ([3]; 90 g/L and 135 g/L BDO, FIG. 12B): grew poorly; tolerance to BDO [4]: greater tolerance than E. coli; growth in the presence of BDO ([5]; 20 g/L of BDO): able to grow; growth in the presence of BDO [5, 11]: completely inhibited growth; growth in the presence of BDO ([6]; 20 g/L of BDO): able to grow; growth in the presence of BDO [6, 11]: completely inhibited growth
B1 | + |  |  |  | 
B2 |  | − | + | + | 
B3 | − |  |  |  | 
B4 |  | − | + | + | 
B5 |  | + | + | + | 

— patent publication US20110014669A1, “Production of 1,4 Butanediol in a Microorganism” (Microbia, Inc., priority 2009, published 2011)
